Source: patent publication US20190388532A1 (ENTEROME S A, published 2019)

What follows are binders tested against T1, HLA-A*0201 molecule expressed by T2 cells (human) (assay: T2 cell HLA-A*0201 surface expression assay, flow cytometry; relative affinity = peptide concentration inducing 20% HLA-A*0201 expression / that of reference peptide HIV pol 589-597).
T1 construct: MHC class I molecule on T2 cells
Experimental: T2 cells (2.10⁵ cells per well) were incubated with decreasing conceontrations of peptides from 100 μM to 0.1 μM in a AIMV medium supplemented with 100 ng/μl of human β2 m at 37° C. for 16 hours. Cells were then washed two times and marked with the anti-HLA-A2 antibody coupled to PE (clone BB7.2, BD Pharmagen).
The experimental protocol, materials and methods correspond to those outlined in Example 3, with the only difference that the above mentioned antigenic peptides were used.

Row | Binder | In vitro binding affinity
1 | FLPFGFILV (also called candidate peptide; IL13RA2-B pAg) [IL13RA2-B (antigenic peptide FLPFGFILV, SEQ ID No 31)] | 0.49
2 | ALPFGFILV (also called IL13RA2-ST) [peptide 1A9V (Eguchi et al. 2006)] | 3.06

Next, values leading:

Row | In vitro binding affinity | Binder
3 | 2.22 | ILPFGFILA [peptide 1I9A]
4 | 2.62 | FLPFGFILM [peptide 1F9M]
